Measurements taken from patent publication US20210190798A1 (AstraZeneca / MedImmune, published 2021).

T1: recombinant human LIFR (LIF receptor) (human, UniProt P42702 45-833, limits assumed)
T1 construct: Soluble analyte in the Octet assay and coated on ELISA plates; also called hLIFR
T1 sequence (looked up): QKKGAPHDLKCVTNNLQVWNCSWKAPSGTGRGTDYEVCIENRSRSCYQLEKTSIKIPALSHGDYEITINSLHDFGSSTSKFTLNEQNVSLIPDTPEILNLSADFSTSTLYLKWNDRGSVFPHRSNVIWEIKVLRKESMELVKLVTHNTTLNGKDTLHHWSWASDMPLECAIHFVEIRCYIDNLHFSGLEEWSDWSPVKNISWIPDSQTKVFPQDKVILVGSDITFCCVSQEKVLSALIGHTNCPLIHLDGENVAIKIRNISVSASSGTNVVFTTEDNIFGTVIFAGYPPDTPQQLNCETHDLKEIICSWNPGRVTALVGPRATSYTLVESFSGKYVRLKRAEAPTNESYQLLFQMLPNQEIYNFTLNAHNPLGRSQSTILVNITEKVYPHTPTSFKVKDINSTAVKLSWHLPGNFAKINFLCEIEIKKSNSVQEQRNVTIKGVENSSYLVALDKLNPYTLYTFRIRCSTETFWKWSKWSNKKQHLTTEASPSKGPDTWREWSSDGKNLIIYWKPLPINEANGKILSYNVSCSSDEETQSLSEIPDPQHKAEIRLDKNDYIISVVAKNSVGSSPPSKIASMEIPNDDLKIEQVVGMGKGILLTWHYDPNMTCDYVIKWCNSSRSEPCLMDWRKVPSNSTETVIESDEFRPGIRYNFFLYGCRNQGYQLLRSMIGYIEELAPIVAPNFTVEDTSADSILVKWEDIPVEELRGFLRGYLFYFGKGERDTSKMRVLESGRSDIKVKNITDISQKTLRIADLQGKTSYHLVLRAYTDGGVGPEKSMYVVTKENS

T2: recombinant human gp130 (human, UniProt P40189 23-619, limits assumed)
T2 construct: Coated on ELISA plates
T2 sequence (looked up): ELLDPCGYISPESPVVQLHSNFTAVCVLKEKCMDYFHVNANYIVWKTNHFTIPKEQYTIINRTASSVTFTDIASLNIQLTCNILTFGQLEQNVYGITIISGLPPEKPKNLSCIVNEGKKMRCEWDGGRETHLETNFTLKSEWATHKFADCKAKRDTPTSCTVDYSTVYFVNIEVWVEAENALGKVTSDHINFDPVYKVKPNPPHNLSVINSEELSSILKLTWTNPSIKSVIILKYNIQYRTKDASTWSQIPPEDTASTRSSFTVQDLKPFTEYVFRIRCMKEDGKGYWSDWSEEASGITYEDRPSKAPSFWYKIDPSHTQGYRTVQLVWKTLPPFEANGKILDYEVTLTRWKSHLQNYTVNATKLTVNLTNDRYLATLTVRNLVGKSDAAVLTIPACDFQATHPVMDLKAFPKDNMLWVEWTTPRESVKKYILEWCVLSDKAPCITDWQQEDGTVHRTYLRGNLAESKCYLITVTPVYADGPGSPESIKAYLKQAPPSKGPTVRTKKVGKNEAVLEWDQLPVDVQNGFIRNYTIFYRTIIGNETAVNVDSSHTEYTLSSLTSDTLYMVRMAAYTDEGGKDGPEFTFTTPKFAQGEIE

B1: A4 (rabbit monoclonal anti-LIF capture antibody) (antibody, V domains shown)
VH: EQLEESVGDLVKPGASLTLTCTASGFSFSGLYYMCWVRQAPGKGLEWIACIWTGSTDSTYYATWAKGRFTISKTSSTTVTLQMTSLTVADTATYFCARGGGVPGDGYALWGPGTLVTVSS
VL: ELVMTQTPASVSEPVGGTVTINCQASEDISSNLVWYQQKSGQPPKLLIYDASMLASGVPSRFKGSGSGTQFTLTISDLECADGATYYCQSYYVASSSYFVNGFGGGTEVV
notes: Rabbit monoclonal antibody; also called capture antibody A4; rabbit A4 monoclonal capture antibody
B2: mAb 3 (antibody, V domains shown)
VH: B1 VH
VL: B1 VL
notes: also called chimeric rabbit/human A4 antibody
B3: h5D8 (humanized 5D8 antibody comprising H2 and L2) (antibody, V domains shown)
VH: QVQLQESGGGLVKPGGSLRLSCAASGFTFSHAWMHWVRQAPGKGLEWVGQIKAKSDDYATYYAESVKGRFTISRDDSKNTLYLQMNSLKTEDTAVYYCTCWEWDLDFWGQGTMVTVSS
VL: DIVMTQTPLSSPVTLGQPASISCRSSQSLLDSDGHTYLNWLQQRPGQPPRLLIYSVSNLESGVPDRFSGSGAGTDFTLKISRVEAEDVGVYYCMQATHAPPYTFGQGTKLEIK
notes: also called H2L2; G (H2L2)
B4: human LIF (Leukemia Inhibitory Factor), expression host not stated at the place of use (ligand)
chain: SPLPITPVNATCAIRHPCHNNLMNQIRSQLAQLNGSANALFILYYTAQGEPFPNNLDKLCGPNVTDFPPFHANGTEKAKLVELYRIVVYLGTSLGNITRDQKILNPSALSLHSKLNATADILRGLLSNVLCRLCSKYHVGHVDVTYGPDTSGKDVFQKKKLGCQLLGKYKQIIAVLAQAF
notes: species not repeated there) and for the cell assays with endogenous or added human LIF; also called hLIF; Bt-LIF

Columns and labels:
human LIF (HEK-293) [1] = target: T3, human LIF (HEK-293) (human, UniProt P15018 23-202); assay: MSD electrochemiluminescence sandwich assay (Example 23): A4 spot-coated as capture, Sulfo-Tag 7C3 (M017C3) as detection, rhLIF titrated with saturating h5D8
T3 construct: Bought recombinant glycosylated protein; also called hLIF (HEK 293); huLIF (mammalian)
From the text: Quality controls and samples are transferred in triplicate to the coated and blocked MSD plate. […] The intensity quantified by the system is proportional to the amount of bound antibody complexes and is expressed as RLU (Relative Light Units).

[2] = target: B4; assay: competitive binding assays against LIF
human LIF (HEK-293) [3] = target: T3, human LIF (HEK-293); assay: MSD electrochemiluminescence sandwich assay: mAb 3 (chimeric rabbit/human A4) as capture antibody, LIF titrated; detection antibody not named in the figure (7C3 in Example 23)
[4] = target: T1, recombinant human LIFR (LIF receptor); assay: BLI (Octet RED 96), control experiment, h5D8 on AHC biosensor
[5] = target: B4; assay: cell-based or functional assay
human IL-6 (E. coli) = target: T4, human IL-6 (E. coli) (human, UniProt P05231 30-212, limits assumed); assay: BLI (Octet), h5D8 amine-coupled on AR2G biosensor, cytokine as analyte
T4 construct: also called huIL-6 (E. coli)
Method: 9.0.0.26 as follows: Amine Reactive 2ndGeneration Biosensors (AR2G) were hydrated for a minimum of 15 minutes in water. […] Kinetics experiments were then performed with the following Dip and Read steps at 30° C., 1000rpm: vi) 60 seconds Baseline in lx kinetics buffer; vii) 180 seconds Association of appropriate serial dilutions of a cytokine in lx kinetics buffer; viii) 300 seconds Dissociation in 1X kinetics buffer; ix) Three Regeneration/Neutralization cycles alternating between 10mM glycine pH 2.0 and lx kinetics buffer respectively (5 seconds in each for 3 cycles).

recombinant human gp130 = target: T2, recombinant human gp130; assay: ELISA: LIF pre-incubated with B09 and added to a gp130-coated plate; the mAb part is detected with anti-rat IgG-HRP

T3 sequence (P15018 23-202 limits assumed): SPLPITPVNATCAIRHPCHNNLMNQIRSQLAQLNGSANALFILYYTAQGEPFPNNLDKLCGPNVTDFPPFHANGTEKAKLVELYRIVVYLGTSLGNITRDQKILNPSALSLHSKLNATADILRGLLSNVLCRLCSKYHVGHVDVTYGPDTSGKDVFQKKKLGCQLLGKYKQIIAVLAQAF
T4 sequence (P05231 30-212 limits assumed): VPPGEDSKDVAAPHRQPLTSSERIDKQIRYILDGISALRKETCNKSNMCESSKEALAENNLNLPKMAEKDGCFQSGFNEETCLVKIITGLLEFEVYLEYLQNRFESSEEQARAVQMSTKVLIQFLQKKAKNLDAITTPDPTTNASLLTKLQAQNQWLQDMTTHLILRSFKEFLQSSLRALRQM

Binder: B1
- binding result (human LIF (HEK-293) [1]): binds
- binding result [2]: binds

Binder: B2
- binding result (human LIF (HEK-293) [3]): binds

Binder: B3
- binding result [4]: no binding
- IC50 for biological inhibition (pSTAT3, U-251 cells, serum starved) [5]: 490 picomolar
- binding result (human IL-6 (E. coli)): no binding

Binder: B4
- binding result (recombinant human gp130): binds
